Source: the RNAGym collection of RNA variant scans (doi:10.1093/molbev/msab373)

B1: Azoarcus group I ribozyme (parent)
chain: GUGCCUUGCGCCGGGAAACCACGCAAGGGAUGGUGUCAAAUUCGGCGAAACCUAAGCGCCCGCCCGGGCGUAUGGCAACGCCGAGCCAAGCUUCGGCGCCUGCGCCGAUGAAGGUGUAGAGACUAGACGGCACCCACCUAAGGCAAACGCUAUGGUGAAGGCAUAGUCCAGGGAGUGGCGAAAGUCACACAAACCGG

Variants of: B1
Assay: reverse-splicing fitness (ratio to wild type); higher = more active; in vitro selection; Mg2+ level not given
Outline: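 An in vitro group I ribozyme library with randomized positions was T7-transcribed and gel-purified. In triplicate, 10 pmol RNA in EPPS pH 7.5 was reacted with 50 pmoles of a 30-nt RNA substrate for 1 h at 37 °C across several added MgCl2 levels (1–48 mM), then stopped with EDTA. Products were reverse transcribed from a substrate-complementary primer, PCR-amplified and sequenced (HiSeq 4000). Fitness is a variant's read proportion after selection over that before, normalised to wild type.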

Q: Which reverse-splicing fitness does the source give for GUGCCUUGCGCCGGGAAACCACGCAAGGGAUGGUGUCAAAUUCGGCGAAACCUAAGCGCCCGCCCGGGCGUAUGGCAACGCCGAGCCAAGCUUCGGCGCCUGCGCCGAUGAAGGUGUAGUGACUAGACGGCACCCACCUAAGGCUAACGUUAUGGUGAAGGCAUAGUCCAGGGAGAGGCGAAAGUCACACAAACCGG [A120U A145U C150U U176A] here?
A: 0.608

Q: Which reverse-splicing fitness does the source give for GUGCCUUGCGCCGGGAAACCACGCAAGGGAUGGUGUCAAAUUCGGCGAAACCUAAGCGCCCGCCCGGGCGUAUGGCAACGCCGAGCCAAGCUUCGGCGCCUGCGCCGAUGAAGGUGUAGUGACUAGACGGCACCCACCUAAGGCUAACGUUAUGGUGAAGGCAUAGUCCAGGGAGGGGCGAAAGUCACACAAACCGG [A120U A145U C150U U176G] here?
A: 0.206

Q: With GUGCCUUGCGCCGGGAAACCACGCAAGGGAUGGUGUCAAAUUCGGCGAAACCUAAGCGCCCGCCCGGGCGUAUGGCAACGCCGAGCCAAGCUUCGGCGCCUGCGCCGAUGAAGGUGUAGUGACUAGACGGCACCCACCUAAGGCUAACGUUAUGGUGAAGGCAUAGUCCAGGGAGCGGCGAAAGUCACACAAACCGG [A120U A145U C150U U176C] as the variant, how does the reverse-splicing fitness read?
A: 0.552

Q: Which reverse-splicing fitness does the source give for GUGCCUUGCGCCGGGAAACCACGCAAGGGAUGGUGUCAAAUUCGGCGAAACCUAAGCGCCCGCCCGGGCGUAUGGCAACGCCGAGCCAAGCUUCGGCGCCUGCGCCGAUGAAGGUGUAGUGACUAGACGGCACCCACCUAAGGCUAACGCUAUGGUGAAGGCAUAGUCGAGGGAGGGGCGAAAGUCACACAAACCGG [A120U A145U C169G U176G] here?
A: 0.00322

Q: With GUGCCUUGCGCCGGGAAACCACGCAAGGGAUGGUGUCAAAUUCGGCGAAACCUAAGCGCCCGCCCGGGCGUAUGGCAACGCCGAGCCAAGCUUCGGCGCCUGCGCCGAUGAAGGUGUAGUGACUAGACGGCACCCACCUAAGGCUAACGCUAUGGUGAAGGCAUAGUCGAGGGAGAGGCGAAAGUCACACAAACCGG [A120U A145U C169G U176A] as the variant, how does the reverse-splicing fitness read?
A: 0.0356

Q: For GUGCCUUGCGCCGGGAAACCACGCAAGGGAUGGUGUCAAAUUCGGCGAAACCUAAGCGCCCGCCCGGGCGUAUGGCAACGCCGAGCCAAGCUUCGGCGCCUGCGCCGAUGAAGGUGUAGUGACUAGACGGCACCCACCUAAGGCUAACGCUAUGGUGAAGGCAUAGUCGAGGGAGCGGCGAAAGUCACACAAACCGG [A120U A145U C169G U176C], which reverse-splicing fitness is on record?
A: 0.0807

Q: Which reverse-splicing fitness does the source give for GUGCCUUGCGCCGGGAAACCACGCAAGGGAUGGUGUCAAAUUCGGCGAAACCUAAGCGCCCGCCCGGGCGUAUGGCAACGCCGAGCCAAGCUUCGGCGCCUGCGCCGAUGAAGGUGUAGUGACUAGACGGCACCCACCUAAGGCUAACGUUAUGGUGAAGGCAUAGUCUAGGGAGGGGCGAAAGUCACACAAACCGG [A120U A145U C150U C169U U176G] here?
A: 0.00903

Q: Which reverse-splicing fitness does the source give for GUGCCUUGCGCCGGGAAACCACGCAAGGGAUGGUGUCAAAUUCGGCGAAACCUAAGCGCCCGCCCGGGCGUAUGGCAACGCCGAGCCAAGCUUCGGCGCCUGCGCCGAUGAAGGUGUAGUGACUAGACGGCACCCACCUAAGGCUAACGCUAUGGUGAAGGCAUAGUCUAGGGAGUGGCGAAAGUCACACAAACCGG [A120U A145U C169U] here?
A: 0.261

Q: For GUGCCUUGCGCCGGGAAACCACGCAAGGGAUGGUGUCAAAUUCGGCGAAACCUAAGCGCCCGCCCGGGCGUAUGGCAACGCCGAGCCAAGCUUCGGCGCCUGCGCCGAUGAAGGUGUAGUGACUAGACGGCACCCACCUAAGGCUAACGCUAUGGUGAAGGCAUAGUCGAGGGAGUGGCGAAAGUCACACAAACCGG [A120U A145U C169G], which reverse-splicing fitness is on record?
A: 0.256

Q: Which reverse-splicing fitness does the source give for GUGCCUUGCGCCGGGAAACCACGCAAGGGAUGGUGUCAAAUUCGGCGAAACCUAAGCGCCCGCCCGGGCGUAUGGCAACGCCGAGCCAAGCUUCGGCGCCUGCGCCGAUGAAGGUGUAGUGACUAGACGGCACCCACCUAAGGCUAACGCUAUGGUGAAGGCAUAGUCAAGGGAGUGGCGAAAGUCACACAAACCGG [A120U A145U C169A] here?
A: 0.0173

Q: Which reverse-splicing fitness does the source give for GUGCCUUGCGCCGGGAAACCACGCAAGGGAUGGUGUCAAAUUCGGCGAAACCUAAGCGCCCGCCCGGGCGUAUGGCAACGCCGAGCCAAGCUUCGGCGCCUGCGCCGAUGAAGGUGUAGUGACUAGACGGCACCCACCUAAGGCUAACGCUAUGGUGAAGGCAUAGUCAAGGGAGAGGCGAAAGUCACACAAACCGG [A120U A145U C169A U176A] here?
A: 0.00339

Q: For GUGCCUUGCGCCGGGAAACCACGCAAGGGAUGGUGUCAAAUUCGGCGAAACCUAAGCGCCCGCCCGGGCGUAUGGCAACGCCGAGCCAAGCUUCGGCGCCUGCGCCGAUGAAGGUGUAGUGACUAGACGGCACCCACCUAAGGCUAACGCUAUGGUGAAGGCAUAGUCAAGGGAGCGGCGAAAGUCACACAAACCGG [A120U A145U C169A U176C], which reverse-splicing fitness is on record?
A: 0.00507

Q: Which reverse-splicing fitness does the source give for GUGCCUUGCGCCGGGAAACCACGCAAGGGAUGGUGUCAAAUUCGGCGAAACCUAAGCGCCCGCCCGGGCGUAUGGCAACGCCGAGCCAAGCUUCGGCGCCUGCGCCGAUGAAGGUGUAGUGACUAGACGGCACCCACCUAAGGCUAACGCUAUGGUGAAGGCAUAGUCAAGGGAGGGGCGAAAGUCACACAAACCGG [A120U A145U C169A U176G] here?
A: 0.00158

Q: With GUGCCUUGCGCCGGGAAACCACGCAAGGGAUGGUGUCAAAUUCGGCGAAACCUAAGCGCCCGCCCGGGCGUAUGGCAACGCCGAGCCAAGCUUCGGCGCCUGCGCCGAUGAAGGUGUAGUGACUAGACGGCACCCACCUAAGGCUAACGCUAUGGUGAAGGCAUAGUCUAGGGAGAGGCGAAAGUCACACAAACCGG [A120U A145U C169U U176A] as the variant, how does the reverse-splicing fitness read?
A: 0.0858

Q: For GUGCCUUGCGCCGGGAAACCACGCAAGGGAUGGUGUCAAAUUCGGCGAAACCUAAGCGCCCGCCCGGGCGUAUGGCAACGCCGAGCCAAGCUUCGGCGCCUGCGCCGAUGAAGGUGUAGUGACUAGACGGCACCCACCUAAGGCUAACGCUAUGGUGAAGGCAUAGUCUAGGGAGCGGCGAAAGUCACACAAACCGG [A120U A145U C169U U176C], which reverse-splicing fitness is on record?
A: 0.133
